This assay addresses T1, Gadd45β/MKK7 interaction (Homo sapiens, UniProt O14733).
T1 construct: The GST-fused full-length kinase was coated for 16 h at 4° C., at a concentration of 42 nM; made in house
T1 sequence (O14733 1-419): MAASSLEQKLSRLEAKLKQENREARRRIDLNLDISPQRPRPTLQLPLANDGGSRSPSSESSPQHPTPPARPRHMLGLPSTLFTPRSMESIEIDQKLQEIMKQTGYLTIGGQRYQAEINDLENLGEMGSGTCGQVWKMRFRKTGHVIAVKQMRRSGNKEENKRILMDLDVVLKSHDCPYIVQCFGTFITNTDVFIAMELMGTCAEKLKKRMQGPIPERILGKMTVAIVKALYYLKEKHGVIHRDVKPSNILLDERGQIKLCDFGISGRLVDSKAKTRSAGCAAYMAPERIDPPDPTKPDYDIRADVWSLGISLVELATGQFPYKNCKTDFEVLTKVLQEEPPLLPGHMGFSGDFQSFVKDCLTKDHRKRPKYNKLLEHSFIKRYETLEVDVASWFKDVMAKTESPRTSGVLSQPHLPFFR
Put plainly: ELISA competition assay of biotin-hGadd45β binding to coated GST-MKK7. The note with it: for inhibition of Gadd45β/MKK7 complex formation in ELISA competition assays: result in words. Here is the method: To evaluate the inhibitory properties of peptides, ELISA-based assays were performed. In these assays, a fusion protein of glutathione S-transferase (GST) and mitogen-activated protein kinase kinase 7 (MKK7) was coated onto wells of a 96-well plate, while biotinylated-hGadd45β was used in solution. hGadd45β was biotinylated using an EZ Link NHS-LC-biotin kit (Pierce, Rockford, Ill.), according to Tornatore et al. (Tornatore L., et al. (2008). J Mol Biol; 378:97-111).
Firstly, the association between Gadd45β and MKK7 was investigated by ELISA assays as also reported in Tornatore et al. (Tornatore L., et al. (2008). J Mol Biol; 378:97-111). The GST-fused full-length kinase was coated for 16 h at 4° C., at a concentration of 42 nM in buffer A (25 mM Tris pH 7.5, 150 mM NaCl, 1 mM DTT and 1 mM EDTA) into wells of a 96-well microliter plate. Some wells were filled with buffer alone and were used as blanks. After incubation for 16 h at 4° C., the solutions were removed and the wells were filled with 350 μL of a 1% (w/v) solution of NFDM (Non Fat Dry Milk) in PBS (phosphate buffered saline). The plate was incubated for 1 h at 37° C. in the dark. After washing with buffer T-PBS (PBS with 0.004% (v/v) Tween detergent), the wells were filled with 100 μL of biotinylated-hGadd45β at concentrations ranging from 8.4 nM to 168 nM. Each data point was performed in triplicate. Following incubation for 1 hr in the dark at 37° C. the solutions were removed and the wells were again washed with T-PBS. Then 100 μL of a 1:10,000 dilution of horseradish peroxidase-conjugated streptavidin dissolved in buffer was added to each well and the plate incubated for 1 hr at 37° C. in the dark. After removal of the enzyme solution and washing, 100 μL of the chromogenic substrate o-phenylendiamine (0.4 mg/mL in 50 mM sodium phosphate-citrate buffer, containing 0.4 mg/mL of urea in hydrogen peroxide) was added and the colour was allowed to develop in the dark for 5 min. The reaction was stopped by adding 50 μL of 2.5 M H2SO4. The absorbance at 490 nm was measured in all wells and the values were averaged after subtracting the corresponding blanks. Bound protein was then detected as described above. The molar concentration of biotinylated-hGadd45β at which the half-maximal ELISA signal is detected corresponds to the dissociation constant (KD) (Friguet B, Chaffotte A F, Djavadi-Ohaniance L, Goldberg M E. J Immunol Methods. 1985 Mar. 18; 77 (2):305-19). Binding competition assays were performed by coating GST-MKK7 at 42 nM as described, a concentration of biotinylated-hGadd45β of 21 nM (pre-saturation conditions 1:0.5 mol/mol ratio) and, in a first test, using competitors at 21 nM. The binding of biotinylated hGadd45β to GST-MKK7 was analyzed in the presence of increasing amounts of competitor peptide (concentrations ranging from 0.01 nM to 100 nM), and the values obtained with the competitor were expressed as the percentage of the binding detected in the absence of competitor. […] According to the convention adopted in the table “L-Xaa” and “D-Xaa” refer to the L and D forms of amino acid Xaa.
A simplified combinatorial peptide library (Marasco et al. 2008, Curr. Protein Pept. Sci. 9:447-67) was screened for antagonists of the Gadd45β/MKK7 interaction. This library contained a total of 12^4=20,736 different tetrapeptides formed by combinations of the following amino acid residues Gln (Q), Ser (S), Arg (R), Ala (A), Tyr (Y), Pro (P), Met (M), Cys (C), Phe (F), Leu (L), His (H), Asp (D), and was iteratively deconvoluted in four steps by ELISA competition assays using at each step coated MKK7 (42 nM), soluble-biotin-hGadd45β (21 nM) and each of the 12 sub-libraries (42 nM).

Setting [1] is: Table V, FIG. 3C, read-out: IC50 ELISA.
Where [2] appears, read: Table VI, compounds 0.01-100 nM, read-out: IC50 Elisa.
Setting [3] is: Table II, modified pure peptides.

52 compounds from patent US8993717B2, “Gadd45beta targeting agents” (Imperial Innovations Limited, priority 2009, dated 2015) can be followed below.

Where two headings read alike, the source gives them in different places. Square brackets hold non-standard residues; d marks the D form. Peptide text beside a SMILES is read from it. * marks the point of attachment. Benzoyl(3-OH,4-OMe) = COc1ccc(C(=O)*)cc1O; ClZ = O=C(OCc1ccccc1Cl)*; Cbz = O=C(OCc1ccccc1)*

As to 2CI-Z-YDHF-NH2 (ClZ-YDHF-NH2), the “% Inhibition of Gadd45β-MKK7 binding” value (Table III, modified peptides) is 38%.
For 2CI-Z-YDHQ-NH2 (ClZ-YDHQ-NH2), the “% Inhibition of Gadd45β-MKK7 binding” value (Table III, modified peptides) is on record as 40%.
As to 2CI-Z-YERF-NH2 (ClZ-YERF-NH2), the “% Inhibition of Gadd45β-MKK7 binding” value (Table III, modified peptides) turned out to be 38%.
Same read-out and setting: the result for “3-OH—4MeO-Benzoid acid-YDHF-NH2 ({Benzoyl(3-OH,4-OMe)}-YDHF-NH2)” reads 81%; that for “3-OH—4MeO-Benzoid acid-YDHQ-NH2 ({Benzoyl(3-OH,4-OMe)}-YDHQ-NH2)”, 7%.
Turning to “3-OH—4MeO-Benzoid acid-YERF-NH2 ({Benzoyl(3-OH,4-OMe)}-YERF-NH2)”, the “% Inhibition of Gadd45β-MKK7 binding” value (Table III, modified peptides) is 86%.
For the compound `N=C(N)NCCC[C@@H](NC(=O)[C@@H](Cc1ccc(O)cc1)NC(=O)OCc1ccccc1)C(=O)N[C@H](Cc1ccccc1)C(N)=O` [Compound 19, Z-Tyr-Arg-Phe-NH2] (Cbz-[dY]-[dR]-[dF]-NH2), for the setting “read-out: IC50s in vitro”, the IC50 turned out to be 0.1 nM.
Regarding `CC(=O)N[C@H](CC1CCCCC1)C(=O)N[C@H](CCCNC(=N)N)C(=O)N[C@H](Cc1ccccc1)C(N)=O` [Compound 20, Ac-Cha-Arg-Phe-NH2], the “inhibition of Gadd45β/MKK7 complex formation in ELISA competition assays” value (shortened to “inhibition … in ELISA competition assays”) was “inactive”. Moreover, the IC50 under setting [1] was > 5 nM.
For the compound `N=C(N)NCCC[C@@H](NC(=O)[C@@H](CCC(=O)O)NC(=O)[C@@H](Cc1ccc(O)cc1)NC(=O)[C@@H](Cc1ccc(O)cc1)NC(=O)OCc1ccccc1)C(=O)N[C@H](Cc1ccccc1)C(N)=O` [Compound 22, Z-Tyr-Tyr-Glu-Arg-Phe-NH2] (Cbz-[dY][dY][dE][dR][dF]-NH2), under setting [1], the IC50 was > 5 nM.
The same measure, in the same setting: to `NC(=O)CC[C@@H](NC(=O)[C@@H](Cc1c[nH]cn1)NC(=O)[C@@H](CC(=O)O)NC(=O)[C@@H](Cc1ccc(O)cc1)NC(=O)OCc1ccccc1)C(N)=O` [Compound 32, Z-Tyr-Asp-His-Gln-NH2] (Cbz-[dY][dD][dH][dQ]-NH2) belongs > 10 nM; to `NC(=O)CC[C@@H](NC(=O)[C@@H](Cc1c[nH]cn1)NC(=O)[C@@H](CC(=O)O)NC(=O)[C@@H](Cc1ccc(O)cc1)NC(=O)[C@@H](Cc1ccc(O)cc1)NC(=O)OCc1ccccc1)C(N)=O` [Compound 33, Z-Tyr-Tyr-Asp-His Gln-NH2] (Cbz-[dY][dY][dD][dH][dQ]-NH2), > 10 nM.
With `CC(=O)NC(Cc1ccc(O)cc1)C(=O)NC(Cc1ccccc1)C(N)=O` (stereo not drawn) [Compound A1, Ac-YF-NH2] (Ac-Tyr-Phe-NH2; configuration not given here), under setting [2], the IC50 was > 100 nM.
Take `CC(=O)NC(Cc1ccccc1)C(=O)NC(CCCNC(=N)N)C(=O)NC(Cc1ccc(O)cc1)C(N)=O` (stereo not drawn) [Compound O1, Ac-FRY-NH2] (Ac-Phe-Arg-Tyr-NH2; configuration not given here): the IC50 under setting [2] was > 100 nM.
Regarding Ac-AERF-NH2, the “% Inhibition of Gadd45β-MKK7 binding” value (Table III, modified peptides) is on record as 7%.
Same read-out and setting: the result for Ac-PERF-NH2 reads 24%.
Take Ac-WDHF-NH2: the “% Inhibition of Gadd45β-MKK7 binding” value under setting [3] was determined as 28%.
The same measure, in the same setting: to Ac-WDHW-NH2 belongs 50%.
On the same count and under the same terms, to Ac-WDKF-NH2 belongs 26%.
Turning to Ac-WDKW-NH2, the “% Inhibition of Gadd45β-MKK7 binding” value under setting [3] turned out to be 69%.
Still for that read-out and setting: to Ac-WDRF-NH2 belongs 46%; to Ac-WDRW-NH2, 93%.
Turning to Ac-WEHF-NH2, under setting [3], the “% Inhibition of Gadd45β-MKK7 binding” value is 36%.
For Ac-WEHW-NH2, the “% Inhibition of Gadd45β-MKK7 binding” value under setting [3] was determined as 75%.
Same read-out and setting: to Ac-WEKF-NH2 belongs 65%; to Ac-WEKW-NH2, 65%.
With Ac-WERF-NH2, the “% Inhibition of Gadd45β-MKK7 binding” value under setting [3] is reported as 29%.
Consider Ac-WERW-NH2, for which the “% Inhibition of Gadd45β-MKK7 binding” value under setting [3] was determined as 69%.
For Ac-YARF-NH2, the “% Inhibition of Gadd45β-MKK7 binding” value (Table III, modified peptides) turned out to be 17%.
Regarding Ac-YDHF-NH2, the “inhibition … in ELISA competition assays” value was “IC50s similar to those of DTPs”. The “% Inhibition of Gadd45β-MKK7 binding” value under setting [3] came out at 94%.
Regarding “Ac-YDHFLys(Z)-NH2 (Ac-YDHFK(Cbz)-NH2; SMILES CC(=O)N[C@@H](Cc1ccc(O)cc1)C(=O)N[C@@H](CC(=O)O)C(=O)N[C@@H](Cc1c[nH]cn1)C(=O)N[C@@H](Cc1ccccc1)C(=O)N[C@@H](CCCCNC(=O)OCc1ccccc1)C(N)=O)”, for the setting “Table III, modified peptides”, the “% Inhibition of Gadd45β-MKK7 binding” value is given as 8%.
As to Ac-YDHQ-NH2, the “% Inhibition of Gadd45β-MKK7 binding” value under setting [3] was 99%.
On to “Ac-YDHQLys(Z)-NH2 (Ac-YDHQK(Cbz)-NH2; SMILES CC(=O)N[C@@H](Cc1ccc(O)cc1)C(=O)N[C@@H](CC(=O)O)C(=O)N[C@@H](Cc1c[nH]cn1)C(=O)N[C@@H](CCC(N)=O)C(=O)N[C@@H](CCCCNC(=O)OCc1ccccc1)C(N)=O)”, for which the “% Inhibition of Gadd45β-MKK7 binding” value (Table III, modified peptides) amounted to 2%.
On to Ac-YDHW-NH2, for which the “% Inhibition of Gadd45β-MKK7 binding” value under setting [3] is listed as 58%.
The same measure, in the same setting: the result for Ac-YDKF-NH2 reads 35%; that for Ac-YDKW-NH2, 23%.
Take Ac-YDRF-NH2: the “% Inhibition of Gadd45β-MKK7 binding” value reads like this: under setting [3], 45%; (Table III, modified peptides) 19%.
For the compound Ac-YDRW-NH2, the “% Inhibition of Gadd45β-MKK7 binding” value under setting [3] was 43%.
On to Ac-YEAF-NH2, for which the “% Inhibition of Gadd45β-MKK7 binding” value (Table III, modified peptides) was 13%.
As for Ac-YEHF-NH2, the “% Inhibition of Gadd45β-MKK7 binding” value is, setting by setting: under setting [3], 52%; (Table III, modified peptides) 23%.
On to Ac-YEHW-NH2, for which, under setting [3], the “% Inhibition of Gadd45β-MKK7 binding” value stood at 64%.
With Ac-YEKF-NH2, the “% Inhibition of Gadd45β-MKK7 binding” value under setting [3] stood at 64%.
Regarding Ac-YEKW-NH2, the “% Inhibition of Gadd45β-MKK7 binding” value under setting [3] is reported as 27%.
In the case of Ac-YEPF-NH2, the “% Inhibition of Gadd45β-MKK7 binding” value (Table III, modified peptides) is 13%.
For the compound Ac-YERA-NH2, the “% Inhibition of Gadd45β-MKK7 binding” value (Table III, modified peptides) came out at 28%.
In the case of Ac-YERF-NH2, the “inhibition … in ELISA competition assays” value was “IC50s similar to those of DTPs”. For the same compound, the “% Inhibition of Gadd45β-MKK7 binding” value under setting [3] was determined as 93%.
For “Ac-YERFLys(Z)-NH2 (Ac-YERFK(Cbz)-NH2; SMILES CC(=O)N[C@@H](Cc1ccc(O)cc1)C(=O)N[C@@H](CCC(=O)O)C(=O)N[C@@H](CCCNC(=N)N)C(=O)N[C@@H](Cc1ccccc1)C(=O)N[C@@H](CCCCNC(=O)OCc1ccccc1)C(N)=O)”, the “% Inhibition of Gadd45β-MKK7 binding” value (Table III, modified peptides) is reported as 6%.
For the compound Ac-YERP-NH2, the “% Inhibition of Gadd45β-MKK7 binding” value (Table III, modified peptides) was 0%.
As to Ac-YERW-NH2, under setting [3], the “% Inhibition of Gadd45β-MKK7 binding” value came to 59%.
Take Ac-YPRF-NH2: the “% Inhibition of Gadd45β-MKK7 binding” value (Table III, modified peptides) was 13%.
For the compound Benzoic acid-YDHF-NH2, the “% Inhibition of Gadd45β-MKK7 binding” value (Table III, modified peptides) amounted to 0%.
For the compound Benzoic acid-YDHQ-NH2, the “% Inhibition of Gadd45β-MKK7 binding” value (Table III, modified peptides) worked out at 1%.
Turning to Benzoic acid-YERF-NH2, the “% Inhibition of Gadd45β-MKK7 binding” value (Table III, modified peptides) is 24%.
